Experimental data: the supplement of paper PMC7125110
± gives the standard error. For some assays here: This sample holds only a part of the variants without activity.

B1: glmS ribozyme (parent)
chain: AUAAAAGCGCCAGAACUACAGAAAUGUAGUUGACGAGGAGGAGGUUUAUCGAAUUUUCGGCGGAUGCCUCCAAA

How the values were obtained:
Details in all cases: with glucosamine-6-phosphate
glucosamine-6-phosphate [1] = variants of: B1; assay: kcat; higher = faster cleavage; RNA array
How it was run: (§1)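 The measurements used barcoded ribozyme variants on sequenced MiSeq chips, transcribed in situ by E. coli RNA polymerase and tracked at 37 °C with a hybridised Cy3 probe. Glucosamine-6-phosphate, 40 μM to 10 mM in HEPES/KCl/Mg(OAc)2 buffer, was flowed in while tiles were imaged over ~14 h. Baseline-normalised signals, also normalised to non-cleaving reference variants, gave per-tile medians that were fit to one- or two-exponential decays for kobs. kcat and KM resulted from weighted Michaelis–Menten fits across concentrations.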

glucosamine-6-phosphate [2] = variants of: B1; assay: KM; higher = weaker cofactor use; RNA array
How it was run: as §1

glucosamine-6-phosphate [3] = variants of: B1; assay: self-cleavage kobs at 640 uM GlcN6P; higher = faster cleavage; RNA array
How it was run: as §1

glucosamine-6-phosphate [4] = variants of: B1; assay: self-cleavage kobs at 2500 uM GlcN6P; higher = faster cleavage; RNA array
How it was run: as §1

glucosamine-6-phosphate [5] = variants of: B1; assay: self-cleavage kobs at 10000 uM GlcN6P; higher = faster cleavage; RNA array
How it was run: as §1

glucosamine-6-phosphate [6] = variants of: B1; assay: self-cleavage kobs at 40 uM GlcN6P; higher = faster cleavage; RNA array
How it was run: as §1

glucosamine-6-phosphate [7] = variants of: B1; assay: self-cleavage kobs at 160 uM GlcN6P; higher = faster cleavage; RNA array
How it was run: as §1

Variant | kcat (glucosamine-6-phosphate [1]) | KM (glucosamine-6-phosphate [2]) | self-cleavage kobs at 640 uM GlcN6P (glucosamine-6-phosphate [3]) | self-cleavage kobs at 2500 uM GlcN6P (glucosamine-6-phosphate [4]) | self-cleavage kobs at 10000 uM GlcN6P (glucosamine-6-phosphate [5]) | self-cleavage kobs at 40 uM GlcN6P (glucosamine-6-phosphate [6]) | self-cleavage kobs at 160 uM GlcN6P (glucosamine-6-phosphate [7])
C16G C58A | 0.000242 ± 1.6e-05 s⁻¹ | 3440 ± 410 µM | 3.73e-05 ± 9.2e-06 s⁻¹ | 0.000104 ± 1.8e-05 s⁻¹ | 0.000178 ± 3.1e-05 s⁻¹ |  | 
C16G U56G | 0.00338 ± 0.00054 s⁻¹ | 1220 ± 320 µM | 0.000953 ± 0.00023 s⁻¹ | 0.00213 ± 0.00038 s⁻¹ | 0.00348 ± 0.00064 s⁻¹ | 0.000129 ± 2.5e-05 s⁻¹ | 0.000387 ± 9.6e-05 s⁻¹
C16U A42C | 1.1e-05 ± 6.5e-07 s⁻¹ |  |  |  |  |  | 
C16G A33G C71U | 1.51e-05 ± 7.7e-07 s⁻¹ | 137 ± 30 µM |  |  | < 1e-05 s⁻¹ |  | 
C16U G38U C71U | 1.14e-05 ± 2e-06 s⁻¹ |  |  |  |  |  | 
C16G U54C | 0.00528 ± 0.0015 s⁻¹ | 3350 ± 1400 µM | 0.000745 ± 0.00019 s⁻¹ | 0.00247 ± 0.00064 s⁻¹ | 0.00397 ± 0.00058 s⁻¹ | 9.28e-05 ± 1.6e-05 s⁻¹ | 0.000157 ± 5.6e-05 s⁻¹
C16U G32C A52G | 4.34e-05 ± 1.5e-06 s⁻¹ | 3600 ± 420 µM |  |  | 3.19e-05 ± 1.3e-05 s⁻¹ |  | 
C16A U47A | 0.000851 ± 0.00014 s⁻¹ | 1150 ± 410 µM | 0.000544 ± 0.00013 s⁻¹ | 0.000553 ± 0.00011 s⁻¹ | 0.000758 ± 0.00011 s⁻¹ |  | 9.46e-05 ± 2.7e-05 s⁻¹
C16G U69A | 4.79e-05 ± 1e-05 s⁻¹ |  | 6.57e-05 ± 1.6e-05 s⁻¹ | 5.05e-05 ± 1.2e-05 s⁻¹ | 3.59e-05 ± 1.2e-05 s⁻¹ |  | 
C16G G41A | 9.56e-05 ± 1.7e-05 s⁻¹ |  |  | 7.9e-05 ± 1.8e-05 s⁻¹ | 7.96e-05 ± 1.2e-05 s⁻¹ |  | < 1e-05 s⁻¹
C16G G41C | 2.59e-05 ± 7.1e-06 s⁻¹ |  |  |  |  | < 1e-05 s⁻¹ | < 1e-05 s⁻¹
C16U G59A | 6.33e-05 ± 4e-06 s⁻¹ | 1180 ± 390 µM |  | 4.86e-05 ± 1.2e-05 s⁻¹ | 5.59e-05 ± 6.3e-06 s⁻¹ |  | 
C16U G44U | 0.000229 ± 2.9e-05 s⁻¹ | 1160 ± 450 µM | 7.8e-05 ± 1.7e-05 s⁻¹ | 0.000216 ± 4.3e-05 s⁻¹ | 0.000197 ± 2.3e-05 s⁻¹ |  | 
C16A U54A | 0.0017 ± 0.00051 s⁻¹ | 2150 ± 940 µM | 0.000351 ± 4.9e-05 s⁻¹ | 0.00076 ± 0.00015 s⁻¹ | 0.00169 ± 0.00028 s⁻¹ | 5.13e-05 ± 1.3e-05 s⁻¹ | 0.000136 ± 2.6e-05 s⁻¹
C16U G32U U69A | 9.39e-05 ± 2e-05 s⁻¹ |  | 9.19e-05 ± 1.8e-05 s⁻¹ |  | 0.000104 ± 1.9e-05 s⁻¹ |  | 
C16G A39U | 0.00424 ± 0.00089 s⁻¹ | 3090 ± 880 µM | 0.000895 ± 0.00011 s⁻¹ | 0.00198 ± 0.00025 s⁻¹ | 0.00316 ± 0.00031 s⁻¹ | 6.4e-05 ± 7.3e-06 s⁻¹ | 0.000164 ± 2.2e-05 s⁻¹

Variant | kcat (glucosamine-6-phosphate [1]) | KM (glucosamine-6-phosphate [2]) | self-cleavage kobs at 640 uM GlcN6P (glucosamine-6-phosphate [3]) | self-cleavage kobs at 2500 uM GlcN6P (glucosamine-6-phosphate [4]) | self-cleavage kobs at 10000 uM GlcN6P (glucosamine-6-phosphate [5]) | self-cleavage kobs at 40 uM GlcN6P (glucosamine-6-phosphate [6]) | self-cleavage kobs at 160 uM GlcN6P (glucosamine-6-phosphate [7])
C16U A48C | 0.000297 ± 6.4e-05 s⁻¹ | 3910 ± 1700 µM | 3.07e-05 ± 1.2e-05 s⁻¹ | 0.000142 ± 2.4e-05 s⁻¹ | 0.000203 ± 3.1e-05 s⁻¹ |  | 
C16G A53G | 0.00701 ± 0.0012 s⁻¹ | 2160 ± 510 µM | 0.00151 ± 0.00025 s⁻¹ | 0.00339 ± 0.00099 s⁻¹ | 0.0061 ± 0.0011 s⁻¹ | 0.000168 ± 3.2e-05 s⁻¹ | 0.000453 ± 7.3e-05 s⁻¹
C16G A48G | < 1e-05 s⁻¹ |  |  |  |  | < 1e-05 s⁻¹ | 
C16G A48U | 0.000805 ± 0.0004 s⁻¹ |  |  |  | 4.45e-05 ± 9.8e-06 s⁻¹ | < 1e-05 s⁻¹ | < 1e-05 s⁻¹
C16G A39C U54G | 0.00043 ± 5.6e-05 s⁻¹ | 1500 ± 410 µM | 0.000133 ± 2.1e-05 s⁻¹ | 0.000227 ± 5.8e-05 s⁻¹ | 0.000394 ± 6e-05 s⁻¹ |  | 
C16A U55C | 0.00122 ± 0.00014 s⁻¹ | 2120 ± 400 µM | 0.00033 ± 4.4e-05 s⁻¹ | 0.000717 ± 8e-05 s⁻¹ | 0.000949 ± 0.00011 s⁻¹ | 1.93e-05 ± 8.5e-06 s⁻¹ | 7.75e-05 ± 1.1e-05 s⁻¹
C16U A64C | 0.000145 ± 2.5e-05 s⁻¹ | 2130 ± 970 µM | 2.44e-05 ± 1.1e-05 s⁻¹ | 9.71e-05 ± 1.7e-05 s⁻¹ | 0.000113 ± 1.6e-05 s⁻¹ |  | 
C16U G37C | 1.3e-05 ± 3e-06 s⁻¹ |  |  |  |  | < 1e-05 s⁻¹ | 
C16G G29A | 0.00419 ± 0.00058 s⁻¹ | 1940 ± 370 µM | 0.00103 ± 0.00015 s⁻¹ | 0.00212 ± 0.00039 s⁻¹ | 0.00387 ± 0.00066 s⁻¹ | 9.85e-05 ± 1.6e-05 s⁻¹ | 0.000295 ± 5.2e-05 s⁻¹
C16G A52U | 0.00015 ± 2.4e-05 s⁻¹ | 7790 ± 2700 µM |  |  | 8.41e-05 ± 1.5e-05 s⁻¹ |  | 
C16A U45A | 0.00475 ± 0.0015 s⁻¹ | 3620 ± 1600 µM | 0.000781 ± 0.00013 s⁻¹ | 0.00222 ± 0.00037 s⁻¹ | 0.00331 ± 0.00052 s⁻¹ | 7.33e-05 ± 1.3e-05 s⁻¹ | 0.000133 ± 3.5e-05 s⁻¹
C16G A33C | 4.59e-05 ± 3.9e-06 s⁻¹ |  |  | 3.96e-05 ± 1.6e-05 s⁻¹ | 4.28e-05 ± 1.3e-05 s⁻¹ | < 1e-05 s⁻¹ | 
C16U G32U | 0.0024 ± 0.00062 s⁻¹ | 8100 ± 2900 µM | 0.000214 ± 3.2e-05 s⁻¹ | 0.000519 ± 5.8e-05 s⁻¹ | 0.00137 ± 0.00015 s⁻¹ |  | 4.18e-05 ± 1e-05 s⁻¹
C16U G32C | 0.000168 ± 3e-05 s⁻¹ | 3960 ± 1900 µM |  | 7.33e-05 ± 1.4e-05 s⁻¹ | 0.000119 ± 1.2e-05 s⁻¹ |  | 
C16U U31G | 0.0126 ± 0.0042 s⁻¹ | 3460 ± 1500 µM | 0.00226 ± 0.00062 s⁻¹ | 0.00478 ± 0.00085 s⁻¹ | 0.0111 ± 0.0031 s⁻¹ | 0.000138 ± 2.7e-05 s⁻¹ | 0.00118 ± 0.00045 s⁻¹
C16U C34A C50G U56C | 1.31e-05 ± 1.9e-06 s⁻¹ |  |  |  |  |  | 
